Results: patent publication US20230192886A1 (IMMATICS BIOTECHNOLOGIES, published 2023)

Biological target: PRAME-004 peptide presented by HLA-A*02 on target cells (peptide-loaded T2 cells); PRAME-004-presenting tumor … (human)
Assay: cell-based or functional assay

| Binder | EC50 of IFNγ release, T2 cells loaded with PRAME-004 from 10 µM to 10 pM (FIG. 12) [µM] | EC50 of IFNγ release, T2 cells loaded with PRAME-004 from 10 µM to 10 pM (FIG. 13) [nM] |
| --- | --- | --- |
| TCR R16P1E8 (TCR, V domains shown) V domain 1: QKEVEQDPGPLSVPEGAIVSLNCTYSNSAFQYFMWYRQYSRKGPELLMYTYSSGNKEDGRFTAQVDKSSKYISLFIRDSQPSDSATYLCAMSEAAGNKLTFGGGTRVLVKP V domain 2: EAGVAQSPRYKIIEKRQSVAFWCNPISGHATLYWYQQILGQGPKLLIQFQNNGVVDDSQLPKDRFSAERLKGVDSTLKIQPAKLEDSAVYLCASSYTNQGEAFFGQGTRLTVVE | ~1 | – |
| TCR R17P1D7 (TCR, V domains shown) V domain 1: QTVTQSQPEMSVQEAETVTLSCTYDTSESDYYLFWYKQPPSRQMILVIRQEAYKQQNATENRFSVNFQKAAKSFSLKISDSQLGDAAMYFCAYRWAQGGSEKLVFGKGTKLTVNP V domain 2: DIYQTPRYLVIGTGKKITLECSQTMGHDKMYWYQQDPGMELHLIHYSYGVNSTEKGDLSSESTVSRIRTEHFPLTLESARPSHTSQYLCATELWSSGGTGELFFGEGSRLTVLE | – | 1.83 |
